Results taken from the supplement of paper PMC7877785.
± gives the uncertainty stated by the source.

Assay: self-splicing fitness, log relative to wild type (ln ratio); higher = more splicing; Tetrahymena group I intron in knt gene, E. coli kanamycin selection, DiMSum; sequences stand for … in CUCUCU…GGAGGGAAAAGUUAUCAGGCAUGCACCUGGUAGCUAGUCUUUAAACCAAUAGAUUGCAUCGGUUUAAAAGGCAAGACCGUCAAAUUGCGGGAAAGGGGUCAACAGCCGUUCAGUACCAAGUCUCAGGGGAAACUUUGAGAUGGCCUUGCAAAGGGUAUGGUAAUAAGCUGACGGACAUGGUCCUAACCACGCAGCCAAGUCCUAAGUCAACAGAUCUUCUGUUGAUAUGGAUGCAGUUCACAGACUAAAUGUCGGUCGGGGAAGAUGUAUUCUUCUCAUAAGAUAUAGUCGGACCUCUCCUUAAUGGGAGCUAGCGGAUGAAGUGAUGCAACACUGGAGCCGCUGGGAACUAAUUUGUAUGCGAAAGUAUAUUGAUUAGUUUUGGAGUACUCGUGGUCG
In short: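 A randomised library covering all eight P1ex-region intron nucleotides was built with the intron in the knt kanamycin-resistance gene on pET-22b(+) and held in E. coli BL21(DE3). Cells were grown overnight at 37°C or 30°C on LB agar, with or without 25 μg/mL kanamycin, plus 100 μg/mL carbenicillin, 50 μM IPTG and 0.2% rhamnose, and pooled colonies were amplicon-sequenced on an Illumina HiSeq 2500. DiMSum fitness is the error-weighted combination of wild-type-normalised replicate fold changes, kanamycin versus none.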

Sequence | self-splicing fitness (ln) (30 °C) | self-splicing fitness (ln) (37 °C)
UUCUAGCAAUAUUACGUUUU | -3.83 ± 0.23 | -2.92 ± 0.18
UUGAAGCAAUAUUACGAAAG | -1.47 ± 0.082 | -0.794 ± 0.1
UUGAAGCAAUAUUACGAACC | -1.68 ± 0.24 | -1.77 ± 0.44
UUGAAGCAAUAUUACGAACG | 0.338 ± 0.093 | 0.443 ± 0.12
UUGAAGCAAUAUUACGACAC | -1.07 ± 0.13 | -0.278 ± 0.2
UUGAAGCAAUAUUACGACGU | 0.216 ± 0.046 | 0.439 ± 0.06
UUGAAGCAAUAUUACGAGCC | -2.69 ± 0.48 | -1.56 ± 0.49
UUGAAGCAAUAUUACGAGGA | -2.32 ± 0.16 | -0.555 ± 0.19
UUGAAGCAAUAUUACGAGUU | -3.34 ± 0.17 | -1.58 ± 0.17
UUGAAGCAAUAUUACGAUUC | -2.33 ± 0.18 | -2.3 ± 0.28
UUGAAGCAAUAUUACGAUUU | -1.58 ± 0.17 | -0.941 ± 0.18
UUGAAGCAAUAUUACGCCUA | 0.0255 ± 0.13 | 0.487 ± 0.22
UUGAAGCAAUAUUACGCGUA | -0.169 ± 0.069 | -0.247 ± 0.098
UUGAAGCAAUAUUACGCUAA | -0.361 ± 0.085 | -0.109 ± 0.097
UUGAAGCAAUAUUACGCUCG | 0.0719 ± 0.11 | 0.419 ± 0.14
UUGAAGCAAUAUUACGCUUC | -2.86 ± 0.49 | -2.06 ± 0.39
UUGAAGCAAUAUUACGGACC | -1.12 ± 0.14 | -0.125 ± 0.2
UUGAAGCAAUAUUACGGAGA | -0.684 ± 0.11 | -0.479 ± 0.15
UUGAAGCAAUAUUACGGCCG | 0.53 ± 0.14 | 0.318 ± 0.22
UUGAAGCAAUAUUACGGCGG | 0.15 ± 0.11 | 0.55 ± 0.13
UUGAAGCAAUAUUACGGGGA | -0.685 ± 0.08 | 0.372 ± 0.12
UUGAAGCAAUAUUACGGGUA | -0.282 ± 0.065 | -0.527 ± 0.081
UUGAAGCAAUAUUACGGUAC | -2.04 ± 0.22 | -2.44 ± 0.31
UUGAAGCAAUAUUACGUAAU | -3.46 ± 0.21 | -1.06 ± 0.13
UUGAAGCAAUAUUACGUAUA | -1.25 ± 0.11 | -0.207 ± 0.14

Sequence | self-splicing fitness (ln) (30 °C) | self-splicing fitness (ln) (37 °C)
UUGAAGCAAUAUUACGUCGA | 0.473 ± 0.084 | 0.333 ± 0.093
UUGAAGCAAUAUUACGUCGC | -3.48 ± 0.23 | -1.49 ± 0.24
UUGAAGCAAUAUUACGUCUC | -3.24 ± 0.28 | -1.28 ± 0.23
UUGAAGCAAUAUUACGUGAG | -0.592 ± 0.067 | -0.805 ± 0.093
UUGAAGCAAUAUUACGUGCC | -2.27 ± 0.15 | -0.402 ± 0.16
UUGAAGCAAUAUUACGUGCG | -0.232 ± 0.063 | -0.131 ± 0.078
UUGAAGCAAUAUUACGUGCU | -3.06 ± 0.17 | -1.97 ± 0.16
UUGAAGCAAUAUUACGUGGU | -3.78 ± 0.25 | -2.94 ± 0.34
UUGCAGCAAUAUUACGACAG | -0.32 ± 0.11 | 0.414 ± 0.15
UUGCAGCAAUAUUACGACCA | -1.8 ± 0.24 | -0.0142 ± 0.18
UUGCAGCAAUAUUACGAGGA | -2.08 ± 0.18 | -0.954 ± 0.14
UUGCAGCAAUAUUACGAGGG | -2.78 ± 0.15 | -0.707 ± 0.15
UUGCAGCAAUAUUACGCAAA | -1.35 ± 0.21 | -2.35 ± 0.39
UUGCAGCAAUAUUACGCAGG | -3.72 ± 0.25 | -2.68 ± 0.25
UUGCAGCAAUAUUACGCCAA | -1.25 ± 0.19 | 0.228 ± 0.24
UUGCAGCAAUAUUACGCGAG | -3.18 ± 0.12 | -1.73 ± 0.12
UUGCAGCAAUAUUACGGAUG | -2.29 ± 0.085 | -1.21 ± 0.1
UUGCAGCAAUAUUACGGAUU | -2.96 ± 0.23 | -2.91 ± 0.33
UUGCAGCAAUAUUACGGCCC | -1.83 ± 0.31 | -0.271 ± 0.47
UUGCAGCAAUAUUACGGCCG | -1.21 ± 0.096 | -0.459 ± 0.12
UUGCAGCAAUAUUACGGGAC | -3.01 ± 0.25 | -2.37 ± 0.39
UUGCAGCAAUAUUACGGGCC | -3.8 ± 0.22 | -2.3 ± 0.17
UUGCAGCAAUAUUACGUAAU | -2.83 ± 0.098 | -2.24 ± 0.14
UUGCAGCAAUAUUACGUCCG | -1.24 ± 0.1 | 0.0449 ± 0.14
UUGCAGCAAUAUUACGUGUA | -1.52 ± 0.11 | -1.07 ± 0.1

Sequence | self-splicing fitness (ln) (30 °C) | self-splicing fitness (ln) (37 °C)
UUGCAGCAAUAUUACGUGUG | -2.1 ± 0.087 | -1.68 ± 0.12
UUGGAGCAAUAUUACGAAAC | – | -2.22 ± 0.37
UUGGAGCAAUAUUACGCAAG | -1.51 ± 0.22 | -2.65 ± 0.44
UUGGAGCAAUAUUACGCAGU | -1.93 ± 0.34 | -2.84 ± 0.48
UUGGAGCAAUAUUACGCUCU | -4.19 ± 0.39 | –
UUGGAGCAAUAUUACGCUUA | -2.03 ± 0.16 | -2.35 ± 0.23
UUGGAGCAAUAUUACGCUUC | -3.11 ± 0.34 | -0.757 ± 0.28
UUGGAGCAAUAUUACGGAGC | -1.47 ± 0.38 | –
UUGGAGCAAUAUUACGGCAA | -0.805 ± 0.23 | -0.671 ± 0.32
UUGGAGCAAUAUUACGGCAU | – | -1.76 ± 0.24
UUGGAGCAAUAUUACGGGAC | -4 ± 0.48 | -0.322 ± 0.34
UUGGAGCAAUAUUACGGUCU | -3.4 ± 0.49 | -2.45 ± 0.48
UUGGAGCAAUAUUACGGUGG | -3.06 ± 0.16 | -3.08 ± 0.23
UUGGAGCAAUAUUACGGUGU | -3.09 ± 0.32 | -1.64 ± 0.32
UUGGAGCAAUAUUACGUCAU | -3.84 ± 0.47 | -1.45 ± 0.34
UUGGAGCAAUAUUACGUCCG | -2.22 ± 0.29 | -1.27 ± 0.4
UUGGAGCAAUAUUACGUGCA | – | -1.94 ± 0.31
UUGGAGCAAUAUUACGUGGA | -2.9 ± 0.33 | -2.24 ± 0.25
UUGGAGCAAUAUUACGUUGU | -4.09 ± 0.36 | -1.77 ± 0.26
UUGUAGCAAUAUUACGAAAC | – | -2.66 ± 0.48
UUGUAGCAAUAUUACGAACG | -1.69 ± 0.31 | -0.376 ± 0.26
UUGUAGCAAUAUUACGAAGU | -2.54 ± 0.28 | -2.56 ± 0.48
UUGUAGCAAUAUUACGACGU | -1.48 ± 0.09 | -0.671 ± 0.12
UUGUAGCAAUAUUACGAGCA | -1.49 ± 0.24 | -0.799 ± 0.2
UUGUAGCAAUAUUACGAGCG | -1.01 ± 0.14 | -0.454 ± 0.28

Sequence | self-splicing fitness (ln) (30 °C) | self-splicing fitness (ln) (37 °C)
UUGUAGCAAUAUUACGAUCG | -1.06 ± 0.14 | 0.103 ± 0.23
UUGUAGCAAUAUUACGAUCU | – | -2.38 ± 0.27
UUGUAGCAAUAUUACGCACG | -1.14 ± 0.11 | -0.742 ± 0.13
UUGUAGCAAUAUUACGCAGG | -1.6 ± 0.24 | 0.28 ± 0.17
UUGUAGCAAUAUUACGCUAG | -2.06 ± 0.22 | -0.816 ± 0.21
UUGUAGCAAUAUUACGGGCU | -2.88 ± 0.29 | -1.62 ± 0.22
UUGUAGCAAUAUUACGGGGA | -1.98 ± 0.26 | -0.346 ± 0.17
UUGUAGCAAUAUUACGGGUG | -2.02 ± 0.11 | -0.808 ± 0.096
UUGUAGCAAUAUUACGGGUU | -4.7 ± 0.34 | -2.83 ± 0.3
UUGUAGCAAUAUUACGUAAA | -1.72 ± 0.22 | -0.0948 ± 0.21
UUGUAGCAAUAUUACGUGAU | -3.14 ± 0.17 | -1.01 ± 0.15
UUUAAGCAAUAUUACGACGU | -1.73 ± 0.15 | -0.17 ± 0.15
UUUAAGCAAUAUUACGAGUU | -2.48 ± 0.17 | -2.09 ± 0.17
UUUAAGCAAUAUUACGAUAG | -0.412 ± 0.096 | -0.23 ± 0.097
UUUAAGCAAUAUUACGAUCU | -1.05 ± 0.1 | -0.724 ± 0.13
UUUAAGCAAUAUUACGAUGU | -2.45 ± 0.14 | -1.96 ± 0.18
UUUAAGCAAUAUUACGCCGG | -0.192 ± 0.089 | 0.194 ± 0.11
UUUAAGCAAUAUUACGCCUU | -0.228 ± 0.34 | -1.35 ± 0.36
UUUAAGCAAUAUUACGCGAC | -2.4 ± 0.18 | -2.75 ± 0.22
UUUAAGCAAUAUUACGCGCG | 0.181 ± 0.12 | -0.26 ± 0.14
UUUAAGCAAUAUUACGCGGA | -1.6 ± 0.098 | -0.0901 ± 0.084
UUUAAGCAAUAUUACGCUUU | -3.6 ± 0.35 | -2.95 ± 0.23
